The values that follow come from patent publication US20210403579A1 (DELINIA, published 2021).

The target in this test is T1, Human ST2 (human, UniProt Q01638 19-328, limits assumed).
T1 construct: also called human ST2 protein; Interleukin 1 receptor-like 1
T1 sequence (looked up): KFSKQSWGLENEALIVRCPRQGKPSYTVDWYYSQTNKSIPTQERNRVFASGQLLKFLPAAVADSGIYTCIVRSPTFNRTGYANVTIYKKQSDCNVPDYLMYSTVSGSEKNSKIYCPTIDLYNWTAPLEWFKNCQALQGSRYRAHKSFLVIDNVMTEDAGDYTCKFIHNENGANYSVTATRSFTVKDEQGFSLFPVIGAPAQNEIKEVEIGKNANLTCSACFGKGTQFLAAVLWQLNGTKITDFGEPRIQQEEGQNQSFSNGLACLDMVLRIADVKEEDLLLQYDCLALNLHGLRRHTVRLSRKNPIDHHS
Put plainly: SPR (Carterra), antibody immobilized, ST2 analyte. As for the experimental part: Binding of the reformatted human ST2 antibodies to the human and mouse ST2 proteins was evaluated by surface plasmon resonance (SPR), using a high throughput antibody screening and characterization platform from Carterra (Salt Lake City, Utah).

Residue numbers refer to the chain shown, from its start.

By Kd is commonly meant a measure of binding affinity in units of concentration. Read a high Kd as a looser complex. The koff is the first-order rate constant of dissociation. Low readings indicate a long-lived complex, high ones a short-lived complex. By kon is commonly meant the second-order rate constant of association.

B1: Human ST2 IgG1 Antibody 16 (antibody, V domains shown)
VH: QVQLVQSGAEVKKPGASVKVSCKASGYTFTSHYMHWVRQAPGQGLEWMGIINPSGGSTSYAQKFQGRVTMTRDTSTSTVYMELSSLRSEDTAVYYCARAGIGYLAAHDLYYYYGMDVWGRGTLVTVSS
VL: EIVMTQSPATLSVSPGERATLSCRASQSVSSNFAWYQQKPGQAPRLLIYGASTRATGIPARFSGSGSGTEFTLTISSLQSEDFAVYYCQQYYSTPYTFGQGTKVEIKR
notes: IgG1; also called ST2 Antibody 16
In turn, B1 had a Kd of 96 nM, a koff of 0.056 s⁻¹ and a kon of 580000 M⁻¹ s⁻¹.

B2: Human ST2 IgG1 Antibody 28 (antibody, V domains shown)
VH: QVQLVQSGAEVKKPGSSVKVSCKASGGTFGNYGINWVRQAPGQGLEWMGGIIPVFGTTNYAQKFQGRVTITADESTSTAYMELSSLRSEDTAVYYCARGLRYYYGMDVWGQGTTVTVSS
VL: DIVMTQSPLSLPVTPGEPASISCRSSQSLLHSNGYNYLDWYLQKPGQSPQLLIYGASTLQSGVPDRFSGSGSGTDFTLKISRVEAEDVGVYYCMQALQNPLTFGGGTKVEIKR
notes: IgG1; also called ST2 Antibody 28
Consider B2, for which the dissociation constant (Kd) came out at 426 nM, the koff worked out at 0.066 s⁻¹ and the kon was determined as 160000 M⁻¹ s⁻¹.

B3: Human ST2 IgG1 Antibody 30 (antibody, V domains shown)
VH: QVQLVQSGAEVKKPGSSVKVSCKASGYTFTTYGITWVRQAPGQGLEWMGGIIPIFGTANYAQKFQGRVTITADESTSTAYMELSSLRSEDTAVYYCAKLSGSSGSWDYYYYYGMDVWGQGTLVTVSS
VL: B2 VL with G55A, T58N, N99T, L101I, G105Q, G106S, K108R, V109L
notes: IgG1; also called ST2 Antibody 30
The molecule B3 displayed an equilibrium dissociation constant (Kd) of 155 nM, a koff of 0.029 s⁻¹ and an on-rate constant (kon) of 190000 M⁻¹ s⁻¹.

B4: Human ST2 IgG1 Antibody 25 (antibody, V domains shown)
VH: QVQLVQSGAEVKKPGSSVKVSCKASGGTFSNYAISWVRQAPGQGLEWMGWISAYNGNTNYAQKFQGRVTMTRDTSTSTVYMELSSLRSEDTAVYYCARSTNALDYWGQGTLVTVSS
VL: DIQMTQSPSSLSASVGDRVTITCRASQGIRSNLDWYQQKPGKAPKLLISIVSNLGSGVPSRFSGSGSGTDFTLTISSLQPEDFATYYCLQHNSNPPTFGGGTKVEIKR
notes: IgG1; also called ST2 Antibody 25
Take B4: the Kd is 193 nM, the koff was 0.03 s⁻¹ and the kon turned out to be 150000 M⁻¹ s⁻¹.

B5: Human ST2 IgG1 Antibody 26 (antibody, V domains shown)
VH: QVQLVQSGAEVKKPGSSVKVSCKASGYTFSDYYMHWVRQAPGQGLEWMGGILPVFGTATYAQKFQGRVTITADESTSTAYMELSSLRSEDTAVYYCARGFGYFDYWGQGTLVTVSS
VL: not shown
notes: IgG1; also called ST2 Antibody 26
B5 displayed an equilibrium dissociation constant (Kd) of 264 nM, a koff of 0.14 s⁻¹ and a kon of 530000 M⁻¹ s⁻¹.

B6: Human ST2 IgG1 Antibody 15 (antibody, V domains shown)
VH: QVQLVQSGAEVKKPGSSVKVSCKASGGTFSSYAISWVRQAPGQGLEWMGGIIPMFGTTNYAQKFQGRVTITADESTSTAYMELSSLRSEDTAVYYCATVAAAGPNWYFDLWGRGTLVTVSS
VL: DIQMTQSPSSLSASVGDRVTITCQASQGISNYLNWYQQKPGKAPKLLIYAASTLQSGVPSRFSGSGSGTDFTLTISSLQPEDFATYYCQQSYSTPPTFGQGTKVEIKR
notes: IgG1; also called ST2 Antibody 15
B6 registered a Kd of 769 nM, a koff of 0.14 s⁻¹ and a kon of 190000 M⁻¹ s⁻¹.

B7: Human ST2 IgG1 Antibody 32 (antibody, V domains shown)
VH: EVQLLESGGGLVQPGGSLRLSCAASGFTFSNSDMNWVRQAPGKGLEWVSFISSSSGYTYYADSVKGRFTISRDNSKNTLYLQMNSLRAEDTAVYYCARANNNWNFYFDYWGQGTLVTVSS
VL: B6 VL with Q24R, G28S, S30N, Y32W, N34A, A50S, T53S, S93D, P96I
notes: IgG1; also called ST2 Antibody 32
Take B7: the Kd was 252 nM, the koff was 0.061 s⁻¹ and the kon turned out to be 240000 M⁻¹ s⁻¹.

B8: Human ST2 IgG1 Antibody 27 (antibody, V domains shown)
VH: QVQLVQSGAEVKKPGASVKVSCKASGYTFTGQYMHWVRQAPGQGLEWMGIINPSGGSTSYAQKFQGRVTMTRDTSTSTVYMELSSLRSEDTAVYYCAGSYYPYYYYGMDVWGQGTTVTVSS
VL: B6 VL with Q24R, G28N, S30G, N31Y, Y32F, N34H, T53S, T94P, P96L, Q100G
notes: IgG1; also called ST2 Antibody 27
For the molecule B8, binding was put at a Kd of 106 nM, the off-rate (koff) was 0.048 s⁻¹ and the on-rate constant (kon) came to 450000 M⁻¹ s⁻¹.

B9: Human ST2 IgG1 Antibody 19 (antibody, V domains shown)
VH: EVQLLESGGGLVQPGGSLRLSCAASGFSFSHAWMSWVRQAPGKGLEWVSVIHSGGSTFYADSVKGRFTISRDNSKNTLYLQMNSLRAEDTAVYYCARIGKGGGFDYWGQGTLVTVSS
VL: B6 VL with Q24R, G28D, S30G, N31S, Y32W, N34A, T53S
notes: IgG1; also called ST2 Antibody 19
In turn, B9 returned a Kd of 113 nM, a dissociation rate constant (koff) of 0.062 s⁻¹ and a kon of 550000 M⁻¹ s⁻¹.

B10: Human ST2 IgG1 Antibody 23 (antibody, V domains shown)
VH: EVQLLESGGGLVKPGGSLRLSCAASGFTFSSYWMHWVRQAPGKGLEWVSSISSRSSYIYYADSVKGRFTISRDDSKNTLYLQMNSLKTEDTAVYYCAREGNGMDVWGQGTTVTVSS
VL: B6 VL with G28D, S30G, N31S, T53S, Q89L, P96F, Q100G
notes: IgG1; also called ST2 Antibody 23
B10 came in with a Kd of 688 nM, a koff of 0.1 s⁻¹ and a kon of 150000 M⁻¹ s⁻¹.

B11: Human ST2 IgG1 Antibody 17 (antibody, V domains shown)
VH: QVQLVQSGAEVKKPGASVKVSCKASGYTFTDSFMFWVRQAPGQGLEWVGLINPGTGATIFAQKFQGRVTMTRDTSTSTVYMELSSLRSEDTAVYYCARSSDYDSSDYWGQGTLVTVSS
VL: B6 VL with Q24R, G28S, N31T, Y32W, N34A, A50G, T53S, S93N, T94S, P96Y
notes: IgG1; also called ST2 Antibody 17
With B11, the Kd came to 433 nM, the koff is 0.033 s⁻¹ and the kon was 76000 M⁻¹ s⁻¹.

B12: Human ST2 IgG1 Antibody 31 (antibody, V domains shown)
VH: QVQLVQSGAEVKKPGSSVKVSCKASGGTFSTYAFSWVRQAPGQGLEYMGGIIPMFGTANYAQKFQGRVTITADESTSTAYMELSSLRSEDTAVYYCAGERGYGSLDYWGQGTLVTVSS
VL: B6 VL with Q24R, S30G, N31S, Y32W, N34A, T53S, S93T, T94F, P96Y, V104L
notes: IgG1; also called ST2 Antibody 31
On to B12, for which the Kd was found to be 274 nM, the koff was 0.12 s⁻¹ and the on-rate (kon) was determined as 430000 M⁻¹ s⁻¹.

B13: Human ST2 IgG1 Antibody 22 (antibody, V domains shown)
VH: EVQLLESGGGLVQPGGSLRLSCAASGFKFRTFWMNWVRQAPGKGLEWVSVISNGGDATHYADSVKGRFTISRDNSKNTLYLQMNSLRAEDTAVYYCARVDCSGGSCYLGYWGQGTLVTVSS
VL: B6 VL with Q24R, Q27E, G28S, S30G, N31R, A50G, A51T, T53N, Q55E
notes: IgG1; also called ST2 Antibody 22
With B13, the dissociation constant Kd came to 90 nM, the koff was 0.048 s⁻¹ and the kon was 530000 M⁻¹ s⁻¹.

B14: Human ST2 IgG1 Antibody 20 (antibody, V domains shown)
VH: EVQLLESGAEVKKPGSSVKVSCKASGGTFSSYAISWVRQAPGQGLEWMGGIIPIFGTANYAQKFQGRVTITADESTSTAYMELSSLRSEDTAVYYCASGFYSNDLYYYYYMDVWGKGTTVTVSS
VL: DIQMTQSPSSLSASVGDRVTITCRASQSISSWLAWYQQKPGKAPKLLIYDASNLKTGVPSRFSGSGSGTDFTLTISSLQPEDFATYYCQQTYAIPLTFGGGTKVEIKR
notes: IgG1; also called ST2 Antibody 20
Molecule B14 displayed a Kd of 81 nM, a koff of 0.065 s⁻¹ and a kon of 810000 M⁻¹ s⁻¹.

B15: Human ST2 IgG1 Antibody 29 (antibody, V domains shown)
VH: QVQLVQSGAEVKKPGASVKVSCKASGGTFTGYFIHWVRQAPGQGLEWMGWMNPNSGNTGYAQKFQGRVTMTRDTSTSTVYMELSSLRSEDTAMYYCAREGQGVVPVDYWGQGTLVTVSS
VL: B14 VL with S52T, K55E, Q89L, T91D, A93N, I94Y, G100Q, G101S
notes: IgG1; also called ST2 Antibody 29
As for B15, binding was characterised by a dissociation constant (Kd) of 480 nM, the dissociation rate constant (koff) was 0.0065 s⁻¹ and the on-rate constant (kon) turned out to be 14000 M⁻¹ s⁻¹.

B16: Human ST2 IgG1 Antibody 21 (antibody, V domains shown)
VH: QVQLVQSGAEVKKPGASVKVSCKASGYTFSNHYMHWVRQAPGQGLEWMGWVNPTSGNTGYAQKFQGRVTMTRDTSTSTVYMELSSLRSEDTAVYYCARDLGVTYFDLWGRGTLVTVSS
VL: B14 VL with S28G, D50E, N53H, K55E, Q89L, T91D, A93N, I94Y
notes: IgG1; also called ST2 Antibody 21
With B16, the Kd turned out to be 805 nM, the off-rate constant (koff) worked out at 0.017 s⁻¹ and the on-rate (kon) was 21000 M⁻¹ s⁻¹.

B17: Human ST2 IgG1 Antibody 18 (antibody, V domains shown)
VH: QVQLVQSGAEVKKPGSQVKVSCKASGYTFTSFGISWVRQAPGQGLEWLGGIIPTLGTANYAQKFQGRVTITADDSTSTAYMELSSLRSEDTAVYYCAGGAAAGPDKYYGMDVWGQGTTVTVSS
VL: not shown
notes: IgG1; also called ST2 Antibody 18
In turn, B17 returned a dissociation constant Kd of 1100 nM, an off-rate (koff) of 0.11 s⁻¹ and a kon of 95000 M⁻¹ s⁻¹.

B18: Human ST2 IgG1 Antibody 24 (antibody, V domains shown)
VH: QVQLVQSGAEVKKPGSSVKVSCKASGGTFSSYAISWVRQAPGQGLEWMGGIIPIFGTANYAQKFQGRVTITADESTSTAYMELSSLRSEDTAVYYCAKTPLGRGYGLFDYWGQGTLVTVSS
VL: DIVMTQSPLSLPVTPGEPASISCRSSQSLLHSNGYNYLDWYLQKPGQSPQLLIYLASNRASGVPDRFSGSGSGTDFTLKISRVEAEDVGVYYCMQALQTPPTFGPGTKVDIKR
notes: IgG1; also called ST2 Antibody 24
B18 returned a dissociation constant (Kd) of 1200 nM, a koff of 0.055 s⁻¹ and a kon of 45000 M⁻¹ s⁻¹.
